Test results reported in patent US7108988B2, “Methods of identifying agents for inhibiting lentivirus replication” (priority 2001, dated 2006).

Columns and labels:
CyPA [1] = molecular target: T1, CyPA (Homo sapiens, UniProt P62937); assay: Far-Western blot binding of Vpr to CyPA bound to nitrocellulose
T1 construct: purchased Sigma
Procedure: Investigation of full length Vpr^1-96 was not possible by BIAcore as the full length Vpr protein tends to undergo self association and protein precipitation, that all together yielded false positive binding signals. As an alternative we investigated the binding of Vpr to CyPA bound to nitrocellulose.
For the purpose of Far-Western Blot technique, purified recombinant CyPA was separated in a 15% SDS PAGE at a concentration of ˜150 ng CyPA per lane. Proteins were electro transferred onto nitrocellulose and individual strips of this CyPA-containing Western blot were blocked for 4 hours with 3% BSA in TBS. Strips were then incubated for 12 hrs at 4° C. with the peptide Vpr^1-96 at a concentration of 1 μg/ml, CyPA strips were incubated either in the absence of any detergent, or under more stringent conditions in TBS/T containing 0.5% Triton X100™ non-ionic detergent. Finally, strips were washed tree times in TBS/T for 10 minutes and bound Vpr was identified with anti-Vpr^1-96 (polyclonal antibodies raised in rabbits) followed by anti-rabbit IgG horse radish peroxidase (HRP) conjugate and enhanced chemiluminescence (ECL) staining. As a control, the CypA binding protein, HIV-1 capsid p24 was tested in parallel.

CyPA [2] = molecular target: T1, CyPA; assay: In vitro CyPA/Vpr complex formation, non-reducing SDS-PAGE and Western blot; type: binding
Source text: […] Proteins were separated on a 14% polyacrylamide gel in SDS (without reducing agents), by PAGE. Proteins were detected by Western blotting after transfer of the proteins from the gel to membranes. CyPA and Vpr proteins were detected using anti-Vpr and anti-CyPA antibodies (Calbiochem).

CyPA [3] = molecular target: T1, CyPA; assay: Surface plasmon resonance (BIAcore) binding of Vpr peptides to immobilized recombinant CyPA; settings: 25° C.; for binding to CyPA: peptide 1 to 250 μM, immobilized recombinant CyPA
Procedure: Surface plasmon resonance biosensor analysis (BIAcore-Spectroscopy) was applied to analyze the molecular aspects that govern interaction of Vpr with CyPA. For the first experiment, a novel peptide comprising the first 40 residues of the Vpr protein derived from the isolate HIV-1NL4-3 was used to study the interaction with CyPA.
Surface plasmon resonance measurements were performed at 25° C. using a BIACORE 2000 (BIAcore AB, Upsala Sweden) equipped with a CM5 research-grade sensor chip. […] The peptide Vpr^1-40 was dissolved at concentrations ranging from 1 to 250 μM in a running buffer (10 mM Hepes, 150 mM NaCl, 50 μM EDTA, 0.005% Tween 20, pH 7.4) and was injected over the flow cells containing CyPA bound to the chip matrix at a flow rate of 5 μl/min. Data were collected at a rate of 2.5 Hz during the 120 s association and dissociation phase. Vpr^1-40 interactions reached equilibrium rapidly and dissociation completely within 30 seconds. Results were corrected by the RU-values of the reference cell (without CyPA) to exclude unspecific binding of Vpr to the chip matrix. The experiment was repeated at least three times with two different charges of peptide and CyPA and reproducible results were obtained.
Synthetic Vpr^1-40 and mutants carrying Pro to Asn exchanges at either amino acid positions 5, 10 and 14 (P^5,10,14 to N ) or at position 35 (P^35 to N) or at all four positions (P^5,10,14,35 to N) were purified to homogeneity, and tested for binding to immobilized recombinant CyPA using the same surface plasmon resonance biosensor system. […] Thus, among prolines at positions 5, 10, 14, and 35 of Vpr^1-40, only proline-35 is essential for binding to CyPA.

T1 sequence (P62937 whole entry): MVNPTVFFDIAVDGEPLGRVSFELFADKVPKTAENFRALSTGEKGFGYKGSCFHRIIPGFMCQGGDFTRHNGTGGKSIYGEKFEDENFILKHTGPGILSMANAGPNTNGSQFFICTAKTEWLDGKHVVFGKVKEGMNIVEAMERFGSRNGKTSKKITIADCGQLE

**Q.** How did the “binding to CyPA (Far-Western)” value (CyPA [1]; 1 μg/ml peptide, absence of detergent) turn out when Vpr^1-96: full length Vpr peptide was run?
**A.** binds to CyPA

**Q.** And the “binding to CyPA (Far-Western)” value (CyPA [1]; presence of 0.5% TritonX100 non-ionic detergent)?
**A.** low affinity

**Q.** What about the “binding to CyPA (Far-Western)” value (CyPA [1]; presence of 0.5% TritonX100 non-ionic detergent, listed as Vpr) of the same substance?
**A.** reduced

**Q.** What about the “complex formation with CyPA” value (CyPA [2]; 1 μg each, 22° C., 12 hours, no reducing agent) of the same substance?
**A.** formation of a novel approximately 29 kDa product

**Q.** What about the “complex formation with CyPA” value (CyPA [2]; with reducing agent (β-mercaptoethanol)) of the same substance?
**A.** loss of the Vpr/CyPA complex

**Q.** With “Pro-35 to Asn of Vpr^21-40: Vpr^21-40 with Pro-35 mutated to Asn” as the substance, how does the “binding to CyPA” value (CyPA [3]) read?
**A.** complete loss of CyPA binding

**Q.** With Vpr^21-40: smaller fragment of Vpr as the substance, how does the “binding to CyPA” value (CyPA [3]) read?
**A.** strong and dose-dependent binding to CyPA

**Q.** How did the “binding to CyPA” value (CyPA [3]) turn out when “Vpr^1-20: very N-terminal fragment of Vpr” was run?
**A.** did not bind to CyPA

**Q.** How did the “binding to CyPA” value (CyPA [3]) turn out when “P^5,10,14 to N (MEQANEDQGNQRENHNEWTL; Vpr 1-20; UniProt P69725 1-20, looked up, variant P5N P10N P14N)” was run?
**A.** retained dose-dependent binding to CyPA

**Q.** Which results are given for “Vpr^1-40: peptide comprising the first 40 residues of the Vpr protein derived from the isolate HIV-1NL4-3”?
**A.** time to complete dissociation from CyPA (CyPA [3]): ≤ 30 s; binding to CyPA (CyPA [3]): concentration dependent binding to CyPA
